Measured values: paper PMC5698806 (Molecular cell, 2017)
Several values for one entry are separate records, joined by “and”; a condition that tells them apart may be missing. Identical values can stand only once. Each block holds one binder with its values, some of them ahead of it.

B2: Tpz1^475–508-Poz1 complex (complex, S. pombe)
chain 1: NSEACEMCRLGLPHGSFFELLRDWKKIEEFRNKS
chain 2: MNEKIRSQSVLNTLETFFIKENHYDMQREESSIVNACLRYLGYSKSMCHEKMPIFMDIAFIEYCFNLSLDPSSFQNLPITQTQPDSQQILWEYSLISNALERLENIELERQNCMREDGLVKYTNELLLNKETLNNEALKLYSCAKAGICRWMAFHFLEQEPIDHINFTKFLQDWGSHNEKEMEALQRLSKHKIRKRLIYVSQHKKKMPWSKFNSVLSRYIQCTKLQLEVFCDYDFKQREIVKMLTSNIN
B6: Poz1 (full length) (natural protein, S. pombe, UniProt O13852 1-249, looked up)
chain: MNEKIRSQSVLNTLETFFIKENHYDMQREESSIVNACLRYLGYSKSMCHEKMPIFMDIAFIEYCFNLSLDPSSFQNLPITQTQPDSQQILWEYSLISNALERLENIELERQNCMREDGLVKYTNELLLNKETLNNEALKLYSCAKAGICRWMAFHFLEQEPIDHINFTKFLQDWGSHNEKEMEALQRLSKHKIRKRLIYVSQHKKKMPWSKFNSVLSRYIQCTKLQLEVFCDYDFKQREIVKMLTSNIN
B7: Biotin-SUMO-tagged Rap1^446-512 (domain or fragment, S. pombe, UniProt Q96TL7 446-512, looked up)
chain: EKTLRETSFRSLDDMSLRKSNSDNIFVKPGEDLEIPLLSDYSDSENISEKSSDDEEAFEKQVTSSYS
modifications: also: SUMO tag fused, biotin on Avi tag

Tests used:
Rap1^467–496 = target: T1, Rap1^467–496 (S. pombe, UniProt Q96TL7 467-496); assay: crystal structure
T1 chain (looked up): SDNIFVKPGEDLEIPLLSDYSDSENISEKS

[1] = target: B7; assay: BLI
[2] = target: T2, Tpz1 (full length, in S. pombe) (S. pombe, UniProt O14246 1-508); assay: co-IP
T2 sequence (looked up): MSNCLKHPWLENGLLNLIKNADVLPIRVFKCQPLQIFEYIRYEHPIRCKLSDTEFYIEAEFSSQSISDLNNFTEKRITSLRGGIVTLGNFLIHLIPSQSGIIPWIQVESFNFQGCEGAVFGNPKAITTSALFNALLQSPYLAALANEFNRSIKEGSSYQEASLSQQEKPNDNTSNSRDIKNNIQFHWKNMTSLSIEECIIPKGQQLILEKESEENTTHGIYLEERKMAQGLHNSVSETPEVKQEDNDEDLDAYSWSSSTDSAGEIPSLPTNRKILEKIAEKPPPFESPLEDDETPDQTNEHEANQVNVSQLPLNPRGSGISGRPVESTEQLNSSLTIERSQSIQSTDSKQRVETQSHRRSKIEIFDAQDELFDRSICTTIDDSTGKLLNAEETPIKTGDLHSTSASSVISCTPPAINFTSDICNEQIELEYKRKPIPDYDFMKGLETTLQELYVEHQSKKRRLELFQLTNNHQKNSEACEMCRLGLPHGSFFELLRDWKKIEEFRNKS

TIN2 = target: T3, TIN2 (human, UniProt Q9BSI4 1-451); assay: ITC
T3 sequence (looked up): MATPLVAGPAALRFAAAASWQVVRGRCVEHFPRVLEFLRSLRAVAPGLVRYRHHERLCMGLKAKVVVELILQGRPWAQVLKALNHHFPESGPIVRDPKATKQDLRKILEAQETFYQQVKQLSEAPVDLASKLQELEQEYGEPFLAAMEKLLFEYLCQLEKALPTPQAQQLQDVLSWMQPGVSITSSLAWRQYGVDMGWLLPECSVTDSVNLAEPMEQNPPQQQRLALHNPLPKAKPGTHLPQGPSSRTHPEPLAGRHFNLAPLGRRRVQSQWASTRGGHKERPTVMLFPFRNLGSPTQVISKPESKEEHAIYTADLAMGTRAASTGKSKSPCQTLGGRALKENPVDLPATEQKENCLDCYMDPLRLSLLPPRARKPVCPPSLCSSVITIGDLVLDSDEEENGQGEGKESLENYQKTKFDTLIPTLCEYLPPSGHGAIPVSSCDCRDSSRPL

Poz1 (full length) [3] = target: B6; assay: pull-down
[4] = target: B2; assay: pull-down
Poz1ΔN (Poz1^29-249) = target: T4, Poz1ΔN (Poz1^29-249) (S. pombe, UniProt O13852 29-249); assay: BLI
T4 sequence (looked up): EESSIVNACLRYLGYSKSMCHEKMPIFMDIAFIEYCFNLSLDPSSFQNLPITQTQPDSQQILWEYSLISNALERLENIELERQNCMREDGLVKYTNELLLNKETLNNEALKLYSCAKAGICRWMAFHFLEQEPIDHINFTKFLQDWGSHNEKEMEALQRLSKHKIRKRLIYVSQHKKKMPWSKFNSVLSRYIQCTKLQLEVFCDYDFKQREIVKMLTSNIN

Poz1^L14R-Tpz1^475–508 = target: T5, Poz1^L14R-Tpz1^475–508 (S. pombe, UniProt O14246 475-508; O13852 1-249, L14R); assay: BLI
T5 sequence (looked up) 1: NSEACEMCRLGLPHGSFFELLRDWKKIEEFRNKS
T5 sequence (looked up) 2: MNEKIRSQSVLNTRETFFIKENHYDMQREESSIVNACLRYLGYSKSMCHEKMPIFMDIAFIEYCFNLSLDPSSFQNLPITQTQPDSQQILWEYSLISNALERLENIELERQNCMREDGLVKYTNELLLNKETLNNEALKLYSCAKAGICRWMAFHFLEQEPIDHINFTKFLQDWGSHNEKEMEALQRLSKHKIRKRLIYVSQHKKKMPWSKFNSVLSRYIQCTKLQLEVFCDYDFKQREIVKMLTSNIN

Poz1 (full length) [5] = target: B6; assay: ITC
Tpz1-Poz1ΔN complex = target: T6, Tpz1-Poz1ΔN complex (S. pombe, UniProt O14246 475-508; O13852 29-249); assay: ITC
T6 sequence (looked up) 1: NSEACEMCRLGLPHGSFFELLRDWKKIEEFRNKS
T6 sequence (looked up) 2: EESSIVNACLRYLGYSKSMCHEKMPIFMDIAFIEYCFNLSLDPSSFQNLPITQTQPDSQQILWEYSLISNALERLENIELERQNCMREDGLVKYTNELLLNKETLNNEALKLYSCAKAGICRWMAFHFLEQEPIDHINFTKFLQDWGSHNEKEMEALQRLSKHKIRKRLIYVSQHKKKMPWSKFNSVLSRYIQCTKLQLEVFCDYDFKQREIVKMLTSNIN

[6] = target: B2; assay: ITC
Poz1 (full length) [7] = target: B6; assay: crystal structure

- binding result (Rap1^467–496): binds
B1: Poz1 of the improved crystal construct Tpz1^475–508-Poz1-Rap1^467–496 (residues 73–86 replaced by GGA, 117–126 by GGGSA) (natural protein, S. pombe)
chain: MNEKIRSQSVLNTLETFFIKENHYDMQREESSIVNACLRYLGYSKSMCHEKMPIFMDIAFIEYCFNLSLDPSGGAQQILWEYSLISNALERLENIELERQNCMREGGGSALLNKETLNNEALKLYSCAKAGICRWMAFHFLEQEPIDHINFTKFLQDWGSHNEKEMEALQRLSKHKIRKRLIYVSQHKKKMPWSKFNSVLSRYIQCTKLQLEVFCDYDFKQREIVKMLTSNIN

Binder: B2
- koff, fold slower than with free Poz1 [1]: ~60 fold

- fold decrease of the co-IP against wild-type cells [2]: ~3 fold
B3: Poz1-L14R (in S. pombe) (natural protein, UniProt O13852 1-249, looked up)
chain: MNEKIRSQSVLNTRETFFIKENHYDMQREESSIVNACLRYLGYSKSMCHEKMPIFMDIAFIEYCFNLSLDPSSFQNLPITQTQPDSQQILWEYSLISNALERLENIELERQNCMREDGLVKYTNELLLNKETLNNEALKLYSCAKAGICRWMAFHFLEQEPIDHINFTKFLQDWGSHNEKEMEALQRLSKHKIRKRLIYVSQHKKKMPWSKFNSVLSRYIQCTKLQLEVFCDYDFKQREIVKMLTSNIN

- Kd (TIN2): 3.11 µM
Binder: APADGEGGSELQPKNKRMTISRLVLEEDSQSTEPSAGLNSSQE (domain or fragment, human, UniProt Q15554 382-424, looked up) [TRF2^382-424]

- fold decrease of the co-IP against wild-type cells [2]: ~3 fold
B4: Poz1ΔN (in S. pombe) (domain or fragment, UniProt O13852 29-249, looked up)
chain: EESSIVNACLRYLGYSKSMCHEKMPIFMDIAFIEYCFNLSLDPSSFQNLPITQTQPDSQQILWEYSLISNALERLENIELERQNCMREDGLVKYTNELLLNKETLNNEALKLYSCAKAGICRWMAFHFLEQEPIDHINFTKFLQDWGSHNEKEMEALQRLSKHKIRKRLIYVSQHKKKMPWSKFNSVLSRYIQCTKLQLEVFCDYDFKQREIVKMLTSNIN

- binding result (Poz1 (full length) [3]): binds
- binding result [4]: binds
B5: GST-Rap1^446-512 (domain or fragment, S. pombe, UniProt Q96TL7 446-512, looked up)
chain: EKTLRETSFRSLDDMSLRKSNSDNIFVKPGEDLEIPLLSDYSDSENISEKSSDDEEAFEKQVTSSYS

Binder: B6
- kon, fold against Tpz1-bound Poz1 [1]: ~5 fold

Binder: B7
- binding result (Poz1ΔN (Poz1^29-249)): binds
- binding result (Poz1^L14R-Tpz1^475–508): binds

- Kd (Poz1 (full length) [5]): 5.62 µM and 4.95 µM
- Kd (Tpz1-Poz1ΔN complex): 4.58 µM
- Kd [6]: 0.48 µM
B8: Rap1^446-523 (domain or fragment, S. pombe, UniProt Q96TL7 446-523, looked up)
chain: EKTLRETSFRSLDDMSLRKSNSDNIFVKPGEDLEIPLLSDYSDSENISEKSSDDEEAFEKQVTSSYSSPIKVKSQGKS

- binding result (Poz1 (full length) [7]): binds
Binder: IFVKPGEDLEIPLLSDYSDSENISE (domain or fragment, S. pombe, UniProt Q96TL7 470-494, looked up) [Rap1^470-494]

- binding result (Poz1 (full length) [3]): binds
B9: GST-Tpz1^406-508 (domain or fragment, S. pombe, UniProt O14246 406-508, looked up)
chain: SSVISCTPPAINFTSDICNEQIELEYKRKPIPDYDFMKGLETTLQELYVEHQSKKRRLELFQLTNNHQKNSEACEMCRLGLPHGSFFELLRDWKKIEEFRNKS
